How the values were obtained:
[1] = target: arsenite oxidase (Aio) from Rhizobium sp. str. NT-26, wild type (Rhizobium sp. str. NT-26)
[2] = target: arsenite oxidase (Aio) from Rhizobium sp. str. NT-26 with the AioB-F108A substitution (Rhizobium sp. str. NT-26); assay: ITC; 750 μM reduced cytochrome c in the syringe injected (1.5 or 2 μL) into 75 μM reduced Aio in the cell; 50 mM Tris-HCl (pH 8), no NaCl, 25 °C; 1:1 binding fit; three enzyme preparations
[3] = target: arsenite oxidase (Aio) from Rhizobium sp. str. NT-26, wild type (Rhizobium sp. str. NT-26); assay: as above

Substance: horse heart cytochrome c (from UniProt P00004 1-105) (natural protein)
- KM for cytochrome c, steady-state kinetics of Aio with 2.5 mM arsenite and 0.5-10 μM cytochrome c [1]: 1 µM
- Kd [2]: 7.8 µM
- dH (kcal mol^(− 1)) [2]: 3
- stoichiometry N [2]: 0.82
- Kd [3]: 2300 nM
- dH (kcal mol^(− 1)) [3]: 6
- stoichiometry N [3]: 0.85

Source: PMC5574378
